# Assay results reported in patent publication US11485776B2, “Antibodies against infectious diseases” (priority 2015, dated 2022).
# “Also recorded” adds a separate entry of the source.
# B1: CaS1 scFv: anti-CaENO1 scFv monoclonal antibody from chicken phage library; light chain SEQ ID NO:11, heavy chain SEQ ID NO:12 (antibody, V domains shown)
# VH: TVTLDESGGGLQTPRGALSLVCKASGFTFIDYGMQWVRQAPGKGLEWVAGIGSSGSSTNYGAAVKGRATISRDDGQSTVRLQLNNLRAEDTGTYYCAKSAGGYCVNGAGCNGGSIDAWGHGTEVIVSS
# VL: ALTQPSSVSANLGGTVKITCSGGSGSYGWYQQKSPGSAPVTVIYSNNQRPSNIPSRFSGSPSGSTGTLTITGVQADDEAVYFCGSRDSSYVGVFGAGTTLTVL
# modifications: scFv linker; amino acid sequence comprised in a heavy chain of an anti-CaENO1 scFv monoclonal antibody (CaS1); amino acid sequence comprised in a light chain of an anti-CaENO1 scFv monoclonal antibody (CaS1)
# Key:
# [1] = biological target: T1, ENO1 protein expressed in cell lysates of C. albicans (Candida albicans, UniProt P30575); test: Western blot on total cell lysate of C. albicans; type: binding
# T1 construct: endogenous in cells; host or cells: C. albicans SC 5314 and clinical isolates CA6-17, CA7-26, CA7-3, CA10-50, CA7-30, CA10-65
# T1 sequence (P30575 whole entry): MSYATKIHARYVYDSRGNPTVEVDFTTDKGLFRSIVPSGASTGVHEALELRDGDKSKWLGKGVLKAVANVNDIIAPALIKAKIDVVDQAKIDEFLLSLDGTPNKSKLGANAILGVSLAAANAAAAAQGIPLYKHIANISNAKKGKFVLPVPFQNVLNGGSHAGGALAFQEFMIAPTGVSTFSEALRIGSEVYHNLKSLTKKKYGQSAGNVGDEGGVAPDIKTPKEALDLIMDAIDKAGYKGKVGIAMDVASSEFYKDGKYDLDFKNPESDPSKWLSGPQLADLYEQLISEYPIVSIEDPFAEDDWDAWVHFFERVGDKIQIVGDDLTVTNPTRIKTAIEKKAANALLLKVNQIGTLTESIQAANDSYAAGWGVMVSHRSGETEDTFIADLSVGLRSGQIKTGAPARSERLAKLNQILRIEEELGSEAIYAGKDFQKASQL
# Text: (A) The total cell lysates of 5 Candida spp. were visualized on SDS-PAGE (left). After transferred onto the NC membranes, they were probed with purified anti-CaENO1 from 7th immunized chicken (1:3,000) (middle), or with CaS1 scFv (right) as described in material and methods. Lanes 1-6 in (A) contained the total cell lysates of C. albicans, C. krusei, C. tropicalis, C. parapsilosis and C. glabrate and purified recombinant CaENO1, respectively. […] (C) Total cell lysate from FLU^R and FLU^s and C. tropicalis (lanes 1-5 represent CT6-29, CT11-52, CT6-50, CT12-54, BCRC20520, respectively) by SDS-PAGE (left) and probed with CaS1 scFv by Western blot (right). (D) The purified ENO1 proteins of C. albicans, S. pneumonia, S. aureus, mouse and human were visualized on SDS-PAGE (left). After transferred onto the NC membranes, they were probed with purified CaS1 scFv (right) as described. Lane M contained protein markers. […]
# This CaS1 scFv was evaluated for its binding activity to different species of Candida. Five common strains of Candida were obtained, total lysate of five species Candida were analyzed on SDS-PAGE (FIG. 6A left) and subsequent Western blot.
# [2] = biological target: T2, binding of surface ENO1 of C. albicans to plasminogen (Candida albicans, UniProt P30575); test: Fibrin matrix-gel degradation analysis with C. albicans cells; type: cell-based; settings: for Binding of CaENO1 to plasminogen: fibrin matrix-gel degradation analysis, C. albicans cells
# T2 construct: endogenous in cells; host or cells: C. albicans cells
# T2 sequence (P30575 whole entry): as above
# Experimental: The ability of CaS1 scFv to block the binding of CaENO1 with plasminogen was evaluated by fibrin matrix-gel degradation analysis. Various samples containing C. albicans only (1), C. albicans+1 ug of plasminogen (2) or C. albicans+10 ug of plasminogen (3) were spotted on the plate. Similar experiments were carried out except C. albicans were mixed first with 10 ug (4) or 100 ug (5) of CaS1 scFv, followed by the addition of 10 ug of plasminogen. C. albicans+CaS1 scFv without plasminogen (6) were spotted as a negative control.
# The matrix gel was prepared for fibrinolysis activity detection^33. C. albicans (10^6 cells) were washed and incubated with or without CaS1scFv ([…]) at 37° C. for 1 hr. After incubation, cells were washed and incubated with plasminogen (10 μg) for 30 min. The mixtures were washed with PBS to remove free plasminogen. The resulting cell pellets were placed in a matrix gel that contained 1.25% low-melting-temperature agarose, thrombin (0.05 U/ml, Sigma) and fibrinogen (2 mg/ml, Sigma). The gel was incubated in a humidified chamber at 37° C. for 10-14 hrs until the appearance of clear spots indicated the presence of fibrinolysis activity.
# It is well known that surface ENO1 act as a plasminogen receptor 32, binding to plasminogen will activate it to plasmin and leading to the degradation of the fibrinogen (extracellular matrix) containing in the gel. We performed matrix-gel studies to test the possible biological significance of CaENO1-plasminogen association and the effect of CaS1 scFv on this binding was observed.
# The inhibition of the degradation of the fibrinogen in the gel is obvious.
molecule,measurement,setting,value
B1,Binding to fluconazole resistance and susceptible C. albicans from clinic (Western blot),[1],binds; also recorded: can bind
same,Binding to ENO1 in total cell lysate of C. albicans (Western blot),[1]; C. albicans SC 5314 lysate,specifically recognized; also recorded: reacted
same,Fibrinolytic activity of C. albicans with plasminogen,"[2]; C. albicans pre-incubated with 10 ug or 100 ug, then 10 ug plasminogen",significantly inhibited
same,Fibrinolysis activity in the absence of plasminogen,[2]; C. albicans+CaS1 scFv without plasminogen,no fibrinolysis activity
same,Binding of CaENO1 to plasminogen,[2],significantly reduced
same,Binding of CaENO1 to plasminogen,[2]; listed as CaS1,significantly inhibited
